This experiment deals with SARS-CoV-2 Beta S蛋白 (假病毒) (SARS-CoV-2 Beta, UniProt P0DTC2 14-1273). Nature of the experiment: cell-based or functional assay.

B1: 抗体Amb2 (antibody, V domains shown)
VH: EVQLLESGPGLVKPSETLSLTCTVSGGSISNSSYYWGWIRQPPGKGLEWIGSIYYSGSTYYNPSLKSRVTISVDTSKNQFSLKLSSVTAADTGVYYCASWLYGDPISFDYWGQGTLVTVSS
VL: not shown
B1: the “假病毒中和 IC50” value was 0.0452 µg/mL.

B2: 抗体Amb1 (antibody, V domains shown)
VH: EVQLLESGTEVKKPGSSVKVSCKASGGTFSSYAISWVRQAPGQGLEWMGGIIPILGIANYAQKFQGRVTITADKSTSTAYMELSSLRSEDTAVYYCARERGYSGYGAAYYFDYWGQGTLVTVSS
VL: QSVLTQAPSVSGAPGQSVTISCTGSSSNIGAGYDVHWYQQLPGTAPKLLIYGNNNRPSGVPDRFSGSKSGTSASLAITGLQAEDEADYYCQSYDSSLSKGVFGGGTKLTVL
For the molecule B2, the “假病毒中和 IC50” value was 0.0266 µg/mL.

The values are drawn from patent publication CN115043938A (DUAN LIANGWEI; JIANG ZHIHUA; WANG HUI, dated 2022).
